Reference: paper PMC3631511

Columns and labels:
[1] = target: ΔE22-Aβ_(1-39) (Japanese mutant Aβ); experiment: fluorescence polarisation
[2] = target: ΔE22-Aβ_(1-39) (Japanese mutant Aβ); experiment: critical concentration

ΔE22-Aβ_(1-39) (Japanese mutant Aβ) (peptide)
k (first-order rate constant of the increase in anisotropy on aggregation) [1]: 0.08 s⁻¹ | critical concentration (Cr) [2]: 0.167 µM
